{"source": "IntAct's records for PubMed 9045636", "parents": {"B1": {"name": "Proto-oncogene tyrosine-protein kinase LCK (Mus musculus), P06240 (parent)", "chain": "MGCVCSSNPEDDWMENIDVCENCHYPIVPLDSKISLPIRNGSEVRDPLVTYEGSLPPASPLQDNLVIALHSYEPSHDGDLGFEKGEQLRILEQSGEWWKAQSLTTGQEGFIPFNFVAKANSLEPEPWFFKNLSRKDAERQLLAPGNTHGSFLIRESESTAGSFSLSVRDFDQNQGEVVKHYKIRNLDNGGFYISPRITFPGLHDLVRHYTNASDGLCTKLSRPCQTQKPQKPWWEDEWEVPRETLKLVERLGAGQFGEVWMGYYNGHTKVAVKSLKQGSMSPDAFLAEANLMKQLQHPRLVRLYAVVTQEPIYIITEYMENGSLVDFLKTPSGIKLNVNKLLDMAAQIAEGMAFIEEQNYIHRDLRAANILVSDTLSCKIADFGLARLIEDNEYTAREGAKFPIKWTAPEAINYGTFTIKSDVWSFGILLTEIVTHGRIPYPGMTNPEVIQNLERGYRMVRPDNCPEELYHLMMLCWKERPEDRPTFDYLRSVLDDFFTATEGQYQPQP"}}}
{"variants_of": "B1", "conditions": "with khdr1_human KHDRBS1, Q07666"}
{"variant": "R154K", "effect of a mutation on the interaction": "decreasing interaction"}
{"variants_of": "B1", "conditions": "with khdr1_human KHDRBS1, Q07666", "remark": "another data set of the same source"}
{"variant": "P112K", "effect of a mutation on the interaction": "decreasing interaction"}
